Laboratory results from PMC2361611.
Like-named read-outs stand apart in the source and are kept apart here.

Assays:
[1] = molecular target: polyubiquitin (UniProt P0CG48); assay: ELISA; 0.50 ug polyubiquitin dried per well (Nunc MaxiSorp), blocked with 1% BSA; angiocidin or mutants at various concentrations in TBST pH 7.4, 1.5 h, room temperature; detected with biotinylated rabbit antiangiocidin IgG and streptavidin-HRP; fitted to a rectangular hyperbola
[2] = molecular target: polyubiquitin (UniProt P0CG48)
[3] = molecular target: polyubiquitin (UniProt P0CG48); assay: ELISA; 0.50 ug polyubiquitin dried per well (Nunc MaxiSorp), blocked with 1% BSA; angiocidin or mutants at various concentrations in TBST pH 7.4, 1.5 h, room temperature; detected with biotinylated rabbit antiangiocidin IgG and streptavidin-HRP; fitted to a rectangular hyperbola; remark: listed apart in the source

| Substance | Kd [1] [nM] | endothelial cell apoptotic activity: viability of HUVE cells plated overnight on wells coated with 1 ug protein, Alamar blue assay (fold lower than angiocidin) [2] | Kd [3] [nM] |
| --- | --- | --- | --- |
| angiocidin (his-tagged recombinant, full length) (natural protein) | 0.041 |  |  |
| angiocidin mutant M-2 (L216ALAL220 substituted with alanines) (natural protein) | 15 | 2 | 1.52 |
